Source: patent US20030190634
Like-named read-outs stand apart in the source and are kept apart here.

Key:
[1] = biological target: Tth DNA ligase wild type (Thermus thermophilus) (UniProt P26996); details: initial ligation rate, 65 C
[2] = biological target: Aquifex sp. DNA ligase (Aquifex sp.) (UniProt O66880); details: initial ligation rate, 65 C
[3] = biological target: Tth DNA ligase K294R K294R (Thermus thermophilus) (UniProt P26996); details: initial ligation rate, 65 C
[4] = biological target: T1, T4 DNA ligase (Enterobacteria phage T4?) (UniProt P00970); details: initial ligation rate, 0.5 nM enzyme, 37 C
T1 sequence: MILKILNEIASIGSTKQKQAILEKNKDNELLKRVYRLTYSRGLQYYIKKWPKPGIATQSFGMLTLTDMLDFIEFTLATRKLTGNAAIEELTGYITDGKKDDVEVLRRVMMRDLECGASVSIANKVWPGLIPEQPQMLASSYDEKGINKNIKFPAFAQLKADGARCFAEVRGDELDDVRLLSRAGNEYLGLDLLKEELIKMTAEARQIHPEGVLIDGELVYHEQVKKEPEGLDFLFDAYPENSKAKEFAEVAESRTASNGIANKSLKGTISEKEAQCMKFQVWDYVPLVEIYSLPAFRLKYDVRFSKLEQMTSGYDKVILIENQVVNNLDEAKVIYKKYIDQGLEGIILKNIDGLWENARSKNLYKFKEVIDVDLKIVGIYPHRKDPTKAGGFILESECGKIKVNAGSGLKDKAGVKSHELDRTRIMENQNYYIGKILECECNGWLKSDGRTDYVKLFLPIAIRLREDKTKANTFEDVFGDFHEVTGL

[5] = biological target: Thermus sp. AK16D DNA ligase (Thermus sp. AK16D) (UniProt Q9ZFY8); details: initial ligation rate, 65 C
Thermus sp. AK16D DNA ligase (Thermus sp. AK16D), sequence (Q9ZFY8 whole entry): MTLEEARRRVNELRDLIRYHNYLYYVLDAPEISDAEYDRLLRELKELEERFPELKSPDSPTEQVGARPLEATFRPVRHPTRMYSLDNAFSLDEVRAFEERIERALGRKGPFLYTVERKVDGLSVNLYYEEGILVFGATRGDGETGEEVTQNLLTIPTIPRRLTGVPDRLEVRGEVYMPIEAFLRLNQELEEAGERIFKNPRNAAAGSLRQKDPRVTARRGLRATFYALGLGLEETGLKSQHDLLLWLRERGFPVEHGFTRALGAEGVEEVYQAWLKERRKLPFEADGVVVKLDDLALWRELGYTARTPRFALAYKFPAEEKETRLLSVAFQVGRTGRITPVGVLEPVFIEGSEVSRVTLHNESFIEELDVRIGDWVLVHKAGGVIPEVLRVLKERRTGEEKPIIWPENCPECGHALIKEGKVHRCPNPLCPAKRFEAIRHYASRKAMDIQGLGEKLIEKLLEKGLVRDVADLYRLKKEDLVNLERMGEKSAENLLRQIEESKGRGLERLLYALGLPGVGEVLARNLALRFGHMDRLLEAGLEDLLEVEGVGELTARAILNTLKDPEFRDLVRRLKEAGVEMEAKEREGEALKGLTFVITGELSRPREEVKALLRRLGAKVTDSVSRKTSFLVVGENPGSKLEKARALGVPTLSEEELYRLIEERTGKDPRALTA

[6] = 12.5 nM enzyme, NAD+, 10 mM MgCl2

Tth DNA ligase wild type (Thermus thermophilus), sequence (P26996 whole entry): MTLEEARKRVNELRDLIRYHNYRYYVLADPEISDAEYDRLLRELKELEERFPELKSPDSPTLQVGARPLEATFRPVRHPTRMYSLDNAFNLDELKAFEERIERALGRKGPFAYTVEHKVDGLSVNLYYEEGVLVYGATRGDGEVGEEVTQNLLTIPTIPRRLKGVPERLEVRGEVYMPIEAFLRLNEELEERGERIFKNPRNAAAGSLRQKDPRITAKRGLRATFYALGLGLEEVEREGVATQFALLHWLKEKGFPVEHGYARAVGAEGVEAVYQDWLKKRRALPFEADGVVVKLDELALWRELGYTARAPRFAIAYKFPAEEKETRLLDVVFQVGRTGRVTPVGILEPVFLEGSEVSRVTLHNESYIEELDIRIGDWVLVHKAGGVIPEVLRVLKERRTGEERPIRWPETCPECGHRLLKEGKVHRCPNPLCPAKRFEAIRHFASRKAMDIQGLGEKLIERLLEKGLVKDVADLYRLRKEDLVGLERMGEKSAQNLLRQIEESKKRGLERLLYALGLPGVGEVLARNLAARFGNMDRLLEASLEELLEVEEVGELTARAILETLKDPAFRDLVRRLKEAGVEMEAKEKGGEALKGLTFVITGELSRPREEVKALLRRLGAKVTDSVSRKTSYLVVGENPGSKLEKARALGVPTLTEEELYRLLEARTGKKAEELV
Aquifex sp. DNA ligase (Aquifex sp.), sequence (O66880 whole entry): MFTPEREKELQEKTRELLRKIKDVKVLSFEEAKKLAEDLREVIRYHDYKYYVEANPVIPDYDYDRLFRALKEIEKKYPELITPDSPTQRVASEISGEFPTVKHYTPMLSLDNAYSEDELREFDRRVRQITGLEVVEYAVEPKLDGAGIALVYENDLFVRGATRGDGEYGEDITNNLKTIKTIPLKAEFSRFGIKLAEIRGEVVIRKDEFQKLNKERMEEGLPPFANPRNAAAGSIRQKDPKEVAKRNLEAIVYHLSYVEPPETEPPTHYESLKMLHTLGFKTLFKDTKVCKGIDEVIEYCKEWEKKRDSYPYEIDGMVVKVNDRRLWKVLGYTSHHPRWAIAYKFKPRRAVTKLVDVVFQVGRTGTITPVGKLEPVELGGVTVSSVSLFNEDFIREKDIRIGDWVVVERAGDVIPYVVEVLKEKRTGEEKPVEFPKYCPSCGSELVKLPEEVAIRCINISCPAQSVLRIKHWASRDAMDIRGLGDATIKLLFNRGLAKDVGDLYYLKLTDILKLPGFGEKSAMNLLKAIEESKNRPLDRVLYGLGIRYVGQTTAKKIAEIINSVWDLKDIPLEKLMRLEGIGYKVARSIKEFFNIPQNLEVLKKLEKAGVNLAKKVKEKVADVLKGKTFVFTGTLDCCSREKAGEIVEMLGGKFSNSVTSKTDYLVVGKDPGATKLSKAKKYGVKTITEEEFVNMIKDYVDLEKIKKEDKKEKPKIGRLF
Tth DNA ligase K294R K294R (Thermus thermophilus), sequence (P26996 whole entry K294R): as the sequence (P26996 whole entry) above, with K294R counted along it

nicked duplex, C-G match at 3'-end
activity (fmol/ (time unit not given)) ([1]; 1.25 nM enzyme as printed, NAD+, 10 mM MgCl2): 55
activity (fmol/ (time unit not given)) [2, 6]: 99
activity (fmol/ (time unit not given)) [3, 6]: 150
activity (fmol/ (time unit not given)) ([4]; 10 mM MgCl2, 12.5 nM substrate): 140
activity (fmol/ (time unit not given)) [5, 6]: 130

nicked duplex, T-G mismatch at 3'-end
activity (fmol/ (time unit not given)) ([1]; fidelity 840): 0.065
activity (fmol/ (time unit not given)) ([2]; fidelity 3500): 0.029
activity (fmol/ (time unit not given)) ([3]; fidelity 5300): 0.029
activity (fmol/ (time unit not given)) ([4]; fidelity 50): 2.8
activity (fmol/ (time unit not given)) ([5]; fidelity 5200): 0.025

nicked duplex, T-G mismatch at penultimate 3'-end
activity (fmol/ (time unit not given)) ([1]; fidelity 190): 0.29
activity (fmol/ (time unit not given)) ([2]; fidelity 380): 0.26
activity (fmol/ (time unit not given)) ([3]; fidelity 400): 0.38
activity (fmol/ (time unit not given)) ([4]; fidelity 19): 7.1
activity (fmol/ (time unit not given)) ([5]; fidelity 1100): 0.12
